From paper PMC9887155 (2023) come the findings set out here.

Assay [1] has as its target T1, Gtα/Giα with a C-terminus truncated by six amino acids (European robin (Erithacus rubecula)). The assay can be described thus: SPR; two-state reaction model, first step (kd1/ka1).
The target in assay [2] is T1, Gtα/Giα with a C-terminus truncated by …. The experiment in a line: SPR; two-state reaction model, kd1. Background: In SPR one partner is held on a chip, and binding of the other changes the refractive index at the surface.

Ends that are not written are not given here.

B1: peptide LWO2 (second cytoplasmic loop of long-wavelength-sensitive opsin of European robin) (peptide)
peptide: CGAGAWERWFVVCKPFGNIKFDGK-NH2
modifications: cysteine pairing not given here
By Kd is commonly meant the concentration at which binding is half-saturated. Broadly, the koff is the rate constant with which the complex falls apart. B1 returned a Kd in assay [1] of 933 nM. This molecule also yielded an off-rate (koff) in assay [2] of 0.00434 s⁻¹.
